Substrate in the series: O=[N+]([O-])c1ccc(OS(=O)(=O)O)cc1
As to the kind of experiment: purified protein. Format: biochemical, Escherichia coli. Particulars: varied donor pNPS 0.02-50 mM, acceptor phenol (5-200 mM), 30 °C, activity buffer Tris-glycine pH 8.9.

B1: EcAST (Escherichia coli CFT073) (protein)
chain: AGFKPAPPAGQLGAVIVDPYGNAPLTALVDLDSHVISDVKVTVHGKGEKGVEISYPVGQESLKTYDGVPIFGLYQKFANKVTVEWKENGKVMKDDYVVHTSAIVNNYMDNRSISDLQQTKVIKVAPGFEDRLYLVNTHTFTAQGSDLHWHGEKDKNAGILDAGPATGALPFDIAPFTFIVDTEGEYRWWLDQDTFYDGRDRDINKRGYLMGIRETPRGTFTAVQGQHWYEFDMMGQVLEDHKLPRGFADATHESIETPNGTVLLRVGKSNYRRDDGVHVTTIRDHILEVDKSGRVVDVWDLTKILDPKRDALLGALDAGAVCVNVDLAHAGQQAKLEPDTPFGDALGVGPGRNWAHVNSIAYDAKDDSIILSSRHQGVVKIGRDKQVKWILAPSKGWEKPLASKLLKPVDANGKPITCNENGLCENSDFDFTYTQHTAWISSKGTLTIFDNGDGRHLEQPALPTMKYSRFVEYKIDEKKGTVQQVWEYGKERGYDFYSPITSIIEYQADRNTMFGFGGSIHLFDVGQPTVGKLNEIDYKTKEVKVEIDVLSDKPNQTHYRALLVRPQQMFK
notes: C-terminal His6 tag, pET-26b(+) NcoI/SacI, E. coli BL21(DE3)pLysS, IMAC, ca. 70 kDa
Usually Km stands for the concentration of substrate that gives half-maximal velocity. What is called kcat is the number of substrate molecules converted per active site and unit of time at saturation. Usually kcat/Km stands for the second-order rate constant that governs catalysis at low substrate concentration. For B1, the Km is 710 ± 30 µM, the turnover number (kcat) turned out to be 41.1 ± 0.5 s⁻¹ and the specificity constant (kcat/Km) was 57000 M⁻¹ s⁻¹.

(Values after publication PMC11468790, “New Bacterial Aryl Sulfotransferases: Effective Tools for Sulfation of Polyphenols” (Journal of Agricultural and Food Chemistry, 2024).)
